From PMC2527131

Target: BLyS receptors on human B cells (human (endogenous in peripheral blood B cells))

nuclear localization of NF-κB p52 in human B cells after 48 h with 100 ng/ml BLyS (Western blot of nuclear extracts, three B cell preparations), fold over unstimulated B cells [fold]	Substance
7.1	recombinant human FLAG-tagged BLyS (from UniProt Q9Y275 134-285) (ligand)
2.4	FLAG-tagged murine BLyS (from UniProt Q9WU72 127-309) (ligand)
